From the supplement of paper PMC6757056
± gives the standard deviation of the averaged measurements.

B1: library; a variant is named by its letters at N, in order (parent)
chain: GCUGUCACCGAGAAACUGUGAAGUAUAUCUUAAACCUGGGCACUUAAAAGAUAUAUGGAGUUAGUAGUGCAACCUGCUCGGUCUGAUGAGUCCNNNNNNGGACGAAACAGC

How the values were obtained:
cyclic di-GMP [1] = variants of: B1; test: normalized RNA/DNA level without ligand (relative to sTRSVctl = 100) (log10 (% of sTRSVctl)); HEK293T; ligand: cyclic di-GMP (c-di-GMP-II aptamer); higher = less ribozyme self-cleavage, higher mRNA level; conditions: reporter: mCherry (pCS4076), ligand present: no
Summary of the method: (§1)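 Ribozyme switch library plasmids linked to reporters were introduced into HEK293T cells at 4 µg per 6-well well, with ligand, if any, added 1 h before. Total RNA was extracted with EDTA 72 h later, reverse-transcribed, amplified, barcoded and sequenced. RNA level was computed from RNA over DNA reads relative to a spiked-in non-cleaving sequence or the top sequences, then scaled and log-transformed. The top set was 25 sequences, values were ×100 and log10, and the cutoff was ≥100 DNA reads.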

cyclic di-GMP [2] = variants of: B1; test: normalized RNA/DNA level with ligand (relative to sTRSVctl = 100) (log10 (% of sTRSVctl)); HEK293T; ligand: cyclic di-GMP (c-di-GMP-II aptamer); ligand concentration (+) RNA-Seq: 1 mM; higher = less ribozyme self-cleavage, higher mRNA level; conditions: reporter: mCherry (pCS4076), ligand present: yes
Summary of the method: as §1

Variant	normalized RNA/DNA level without ligand (log10) (cyclic di-GMP [1])	normalized RNA/DNA level with ligand (log10) (cyclic di-GMP [2])
GCUGUCACCGAGAAACUGUGAAGUAUAUCUUAAACCUGGGCACUUAAAAGAUAUAUGGAGUUAGUAGUGCAACCUGCUCGGUCUGAUGAGUCCUUCGCGGGACGAAACAGC [UUCGCG]	1.837 ± 0.0073	1.93 ± 0.089
GCUGUCACCGAGAAACUGUGAAGUAUAUCUUAAACCUGGGCACUUAAAAGAUAUAUGGAGUUAGUAGUGCAACCUGCUCGGUCUGAUGAGUCCGAUCCGGGACGAAACAGC [GAUCCG]	1.88 ± 0.068	1.95 ± 0.15
GCUGUCACCGAGAAACUGUGAAGUAUAUCUUAAACCUGGGCACUUAAAAGAUAUAUGGAGUUAGUAGUGCAACCUGCUCGGUCUGAUGAGUCCGGCUUCGGACGAAACAGC [GGCUUC]	1.75 ± 0.064	1.82 ± 0.12
GCUGUCACCGAGAAACUGUGAAGUAUAUCUUAAACCUGGGCACUUAAAAGAUAUAUGGAGUUAGUAGUGCAACCUGCUCGGUCUGAUGAGUCCUGCACAGGACGAAACAGC [UGCACA]	1.76 ± 0.05	1.89 ± 0.12
GCUGUCACCGAGAAACUGUGAAGUAUAUCUUAAACCUGGGCACUUAAAAGAUAUAUGGAGUUAGUAGUGCAACCUGCUCGGUCUGAUGAGUCCUACUGCGGACGAAACAGC [UACUGC]	1.712 ± 0.0056	1.83 ± 0.13
GCUGUCACCGAGAAACUGUGAAGUAUAUCUUAAACCUGGGCACUUAAAAGAUAUAUGGAGUUAGUAGUGCAACCUGCUCGGUCUGAUGAGUCCCUUAUCGGACGAAACAGC [CUUAUC]	1.73 ± 0.088	1.87 ± 0.14
GCUGUCACCGAGAAACUGUGAAGUAUAUCUUAAACCUGGGCACUUAAAAGAUAUAUGGAGUUAGUAGUGCAACCUGCUCGGUCUGAUGAGUCCUAGUAAGGACGAAACAGC [UAGUAA]	1.652 ± 0.0068	1.8 ± 0.12
GCUGUCACCGAGAAACUGUGAAGUAUAUCUUAAACCUGGGCACUUAAAAGAUAUAUGGAGUUAGUAGUGCAACCUGCUCGGUCUGAUGAGUCCGUCAUGGGACGAAACAGC [GUCAUG]	1.61 ± 0.037	1.75 ± 0.11
GCUGUCACCGAGAAACUGUGAAGUAUAUCUUAAACCUGGGCACUUAAAAGAUAUAUGGAGUUAGUAGUGCAACCUGCUCGGUCUGAUGAGUCCCUCCAGGGACGAAACAGC [CUCCAG]	1.73 ± 0.07	1.86 ± 0.055
GCUGUCACCGAGAAACUGUGAAGUAUAUCUUAAACCUGGGCACUUAAAAGAUAUAUGGAGUUAGUAGUGCAACCUGCUCGGUCUGAUGAGUCCAUGAAUGGACGAAACAGC [AUGAAU]	1.53 ± 0.055	1.72 ± 0.024
GCUGUCACCGAGAAACUGUGAAGUAUAUCUUAAACCUGGGCACUUAAAAGAUAUAUGGAGUUAGUAGUGCAACCUGCUCGGUCUGAUGAGUCCUGUAUGGGACGAAACAGC [UGUAUG]	1.75 ± 0.045	1.9 ± 0.13
GCUGUCACCGAGAAACUGUGAAGUAUAUCUUAAACCUGGGCACUUAAAAGAUAUAUGGAGUUAGUAGUGCAACCUGCUCGGUCUGAUGAGUCCUAGGCAGGACGAAACAGC [UAGGCA]	1.68 ± 0.072	1.84 ± 0.13
GCUGUCACCGAGAAACUGUGAAGUAUAUCUUAAACCUGGGCACUUAAAAGAUAUAUGGAGUUAGUAGUGCAACCUGCUCGGUCUGAUGAGUCCAUUGUGGGACGAAACAGC [AUUGUG]	1.605 ± 0.014	1.84 ± 0.11
